# Experimental data from article PMC12333492, “Co-enzyme-free, enzymatic synthesis of aldehydes from renewable resources with a new and highly efficient alkene cleaving dioxygenase” (Green Chemistry, 2025).
# T1: PAD (Heyndrickxia coagulans, UniProt A0A0C5C6Z1)
# T1 construct: gene SB48_HM08orf00536; co-expressed with MapADO on one pET28 vector, E. coli BL21 (DE3) resting cells
# T1 sequence (A0A0C5C6Z1 1-167): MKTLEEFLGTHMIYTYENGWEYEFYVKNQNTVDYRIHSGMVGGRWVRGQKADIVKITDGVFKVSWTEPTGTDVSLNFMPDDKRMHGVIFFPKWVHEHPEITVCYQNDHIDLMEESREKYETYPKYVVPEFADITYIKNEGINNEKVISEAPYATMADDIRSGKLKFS
# B1: MapADO (Moesziomyces aphidis) (protein)
# chain: MAPTATQEPVPVPVTSKAAPSHGYVHPTDILPSGWPTATDLSGGAQPRRFEGTIFDVMTRGTIPKELHGTFYRIMPDYAQPPTYYKGGELNAPIDGDGTVAAFRFKDGKVDYRQRFVETDRFKVERRARKSMYGLYRNPYTHHPCVRQTVESTANTNVVMHAGRFLAMKENGNAYEMDPHTLKTLGYNPFNLPSKTMTAHPKQCSVTGNLVGFGYEAKGLATKDVYYFEVDPSGKVVRDLWLEAPWCAFIHDCALTPNYLVLMLWPFEANLERMKAGGHHWAYDYTKPITWITIPRGAKSKDEVKYWHWKNGMPIHTASGFEDEQGRIIIDSSLVHGNAFPFFPPDSDEQKKKQEADGTPKAQFVRWTIDPRKDNNEQLPDPEVILDTPSEFPQIDNRFMGVEYSSAFINVFVPDRSDGNKNVFQGLNGLAHYKRKEGTTEWYYAGDNCLIQEPVFSPRSKDAPEGDGFVLAIVDRLDLNRSEVVVIDTRDFTKAVAAVQLPFAIRSGIHGQWIPGEVTPDFETKGLVDLPKEEHWAPLSQSPYDPDA
# notes: codon-optimized, pET-28a, His6 tag, E. coli BL21 (DE3), IMAC purified, FeCl2 supplemented
# What was measured:
# [1] = target: T1, PAD; test: whole-cell decarboxylation to 4-vinylguaiacol, HPLC; assay type: cell-based; conditions: co-expressed with MapADO; 200 mM phosphate pH 7.4, 30 °C
# [2] = target: T2, MapADO (Moesziomyces aphidis, UniProt W3VHW6); test: continuous UV-Vis initial rate of vanillin formation ([…] nm); assay type: biochemical; conditions: O2 co-substrate; 10 mM potassium phosphate pH 7.4, 30 °C, 2% EtOH; initial-rate value taken (endpoint HPLC fit also printed in the 2nd table, row 3)
# T2 construct: gene PaG_05861; codon-optimized, pET-28a, His6 tag, E. coli BL21 (DE3), IMAC purified, FeCl2 supplemented
# [3] = substrate: COc1cc(/C=C/CO)ccc1O; test: UV-Vis spectrophotometric initial rate; assay type: biochemical, Moesziomyces aphidis; conditions: O2 co-substrate, 10 mM potassium phosphate pH 7.4, 30 °C, 2% EtOH
# Excerpt: UV-Vis spectrophotometric initial rate on MapADO
# [4] = substrate: C=Cc1ccc(O)c(OC)c1; test: endpoint HPLC-UV; assay type: biochemical, Moesziomyces aphidis; conditions: O2 co-substrate, 10 mM potassium phosphate pH 7.4, 30 °C, 2% EtOH, endpoint measurement (authors: endpoint overestimates kcat and KM)
# Excerpt: (§1) endpoint HPLC-UV on MapADO
# [5] = substrate: Oc1ccc(/C=C/c2cc(O)cc(O)c2)cc1; test: endpoint HPLC-UV; assay type: biochemical, Moesziomyces aphidis; conditions: O2 co-substrate, 10 mM potassium phosphate pH 7.4, 30 °C, 2% EtOH, endpoint measurement (authors: endpoint overestimates kcat and KM)
# Excerpt: as §1
molecule,measurement,setting,value
"COc1cc(/C=C/C(=O)O)ccc1O [2a, ferulic acid]","whole-cell decarboxylation to 4-vinylguaiacol, HPLC",[1],The decarboxylation was effective and resulted in the rapid accumulation of 2b
"CC=Cc1ccc(O)c(OC)c1 [1b, isoeugenol]",Km,[2],118 ± 13 µM
B1,Km,[3],445 ± 125 µM
same,kcat,[3],90 ± 8 s⁻¹
same,Km,[4],220 ± 46 µM
same,kcat,[4],361 ± 12 s⁻¹
same,Km,[5],49 ± 9 µM
same,kcat,[5],3.2 ± 0.1 s⁻¹
